The nature of data set [1]: Storage stability of EPO preparations, residual EPO by Quantikine IVD EPO-specific immunoassay. To be noted: within one day. It is filed as physicochemical. The procedure: Freeze dried EPO was re-hydrated and diluted 100 fold with a buffer of the following composition:
and dried in a spray dryer as above. The powder was weighed into 125 mg aliquots and subjected to secondary drying at a temperature ramping from 40° C. to 80° C. at a rate of 15 degrees per hour under vacuum and then either sealed in a serum vial or re-suspended in 0.5 ml of mineral oil BP and sealed. They were then stored at 37° C. or 55° C. for up to 15 days. At the end of the storage period, residual EPO was extracted into phosphate buffered saline containing 0.01% BSA as above and the amount remaining in the extract was measured using a Quantikine IVD EPO-specific immunoassay (RD Systems Inc).

A further data set deals with phage lambda DNA. Put plainly: Storage stability of EcoR1 preparations, residual titre by complete cutting of DNA. It is filed as physicochemical. The method, then:
Restriction enzymes are customarily stored in freezers at −20° C. in buffers containing 50% glycerol to prevent ice formation. Even under these conditions some of them have a limited storage life and need to be replaced at intervals. Several enzymes were dried using the technique of the present invention with similar results. The data with one enzyme, EcoR1, is illustrated. The enzyme solution was diluted 100 fold in SC buffer (Colaco C. A. L. S., Sen S., Thangavelu M., Pinder S. and Roser B. “Extraordinary stability of enzymes dried in trehalose: Simplified molecular biology.” Biotechnol. 10 1007-1011 (1992)). The dried enzyme was produced in the spray dryer as above, sealed in vials with or without oil and its stability was compared with fresh liquid enzyme diluted in cutting buffer at three storage temperatures 4° C., 37° C. and 55° C. To determine residual activity after storage, the enzyme was recovered into the acueous phase as described earlier, diluted with SC buffer in a 2-fold dilution series and used to cut 0.5 μg of phage lambda DNA (Life Technologies Inc). The completeness of cutting at various dilutions was assessed by separating the DNA fragments by agarose gel electrophoresis in which the bands were visualised under UV light by ethidium bromide staining.

As to “fresh EPO: Recombinant Human Erythropoietin, not dried in trehalose”, the loss of activity is 88% in data set [1] (37° C.) and > 95% in data set [1] (55° C.).
As to “fresh enzyme: Restriction Endonuclease EcoR1, fresh liquid enzyme diluted in cutting buffer”, the activity on storage entry is “stable” in the data set on phage lambda DNA (4° C., over 28 days) and “lost essentially all activity” in the data set on phage lambda DNA (37° C., by 28 days). In addition, the “time to completely inactive” value in the data set on phage lambda DNA (55° C.) is ≤ 7 days.

These data come from patent publication US6669963B1, “Stable particle in liquid formulations” (Elan Drug Delivery Limited, priority 1997, dated 2003).
